The supplement of paper PMC9170038

Columns and labels:
Details in all cases: FMN input: 0 or 200 uM; Eterna round: R93 (includes R88 designs)
MS2 coat protein [1] = test: apparent KD of MS2 coat protein, switch OFF state (with FMN for OFF switches, without FMN for ON switches); designed switch direction (-1 OFF switch, 1 ON switch): 1; higher = weaker reporter binding
Method in brief: (§1)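 Designed RNA switches were transcribed on-chip from Illumina sequencing clusters. They were then titrated with SNAP-549-labelled MS2 coat protein (twofold steps, 0.7 or 1.5 nM to 3 µM; 0.8–1.5 h to 10–20 min per step) in 100 mM Tris-HCl pH 7.5, 80 mM KCl, 4 mM MgCl2, without or with constant ligand. Apparent KD is the per-design median of normalised cluster binding-curve fits.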

MS2 coat protein [2] = test: apparent KD of MS2 coat protein, switch ON state; designed switch direction (-1 OFF switch, 1 ON switch): 1; higher = weaker reporter binding
Method in brief: as §1

MS2 coat protein [3] = test: apparent KD of MS2 coat protein, switch ON state; designed switch direction (-1 OFF switch, 1 ON switch): -1; higher = weaker reporter binding
Method in brief: as §1

MS2 coat protein [4] = test: apparent KD of MS2 coat protein, switch OFF state (with FMN for OFF switches, without FMN for ON switches); designed switch direction (-1 OFF switch, 1 ON switch): -1; higher = weaker reporter binding
Method in brief: as §1

Sequence	apparent KD of MS2 coat protein (MS2 coat protein [1]) [nM]	apparent KD of MS2 coat protein (MS2 coat protein [2]) [nM]	apparent KD of MS2 coat protein (MS2 coat protein [3]) [nM]	apparent KD of MS2 coat protein (MS2 coat protein [4]) [nM]
AAAAAAAAAACAUAGGAUAUCCGGGCCGGGACAUGAGGAUCACCCAUGUCAAAAAAAAUUGGCCCGGAGAAGGAUGAAAAAAAAAA [SAmeState2-II]	14	11.5		
AAAAAAAAAAGGCAGGAUAUUCAAAAAAAAACAUGAGGAUCACCCAUGUAAAAAAAAAAAAAAUGGAAGAAGGGCCAAAAAAAAAA [Fiskers Same State 2 D1]	28	18.8		
AAAAAAAAAAGUGAGGAUAUGUGAUCGGUGACAUGAGGAUCACCCAUGUGAGGCCUUCGGGCCGGACAGAAGGCACAAAAAAAAA [Same State 2-X]	257	78.1		
AAAAAAAAGCCCAAGGAUAUCCGGAUGAAGACAUGAGGAUCACCCAUGUGAAAAAAAAAAUAUGAGGAGAAGGUGGGAAAAAAAAA [Esgemaedso]	76.6	63.4		
AAAAAACAUGAGGAUCACCCAUGUAAAAAAAACACAGGAUAUCCCUUUUUUAAAAAAAAAGGAGAAGGGUGAAAAA [Nob's Hobby 7 - Jieux - Same State 1]	31.5	31.1		
AAAAAACAUGAGGAUCACCCAUGUAAAAAAAACACAGGAUAUCCCUUUUUUAAAUGGGAAGGAGAAGGGUGAAAAA [Nob's Hobby 11 - Jieux - Same State 1]	36.2	43.1		
AAAAAACAUGAGGAUCACCCAUGUAGAAAUAUGGAAGGAUAUGGAAACACGAAAGUGAAACCAGAAGGUCCAAAAG [77%, Mat - Mod of Eli, 9]	23.9	18		
AAAAAACAUGAGGAUCACCCAUGUCGAAAGACAUGAGGAUAUGUACAGACUUCGGUCUGUACAGAAGGCAUGUCAA [SS1 - 1020]	107	19.4		
AAAAAACAUGAGGAUCACCCAUGUCUUCGGACGUGAGGAUAUGUACAGACUUCGGUCUGUACAGAAGGCACAAAAA [SS1 - 1033]	397	38.1		
AAAAAACAUGAGGAUCACCCAUGUGAAAAUAUGGGAGGAUAUACAAAGACGAAAGUCAAAGUAGAAGGCCUAAAAA [Mat - Same State 1 - Eli mod - D86]	132	18.4		
AAAAAACAUGAGGAUCACCCAUGUGAGAACACGGGAGGAUAUACGAAGACGAAAGUCGAAGUAGAAGGCCUAAAAA [Garnet 82]	75.6	21.2		
AAAAAAGAUCGAGAGGAUAUCCGAGUGGUAACAUGAGGAUCACCCAUGUGAAGAAAGGAACAUGAGGAGAAGGCUCGAUCAAAAA [viburnum 4]	18.7	7.85		
GAAAAGUGAGGAUAUACAGAUAAAAAAACGAAAAAAAAUCUGUAGAAGGCACAUGAGGAUCACCCAUGUAAAAG [Mat - Exclusion 4 - Mayanna - D107]			36	36.6
GAAAAGUGAGGAUAUUCGGAUAGGAAAACGAAAACCUAUCCGAAGAAGGCACAUGAGGAUCACCCAUGUGAAAA [Mat - Exaclusion 4 - Eli mod - D44]			22.4	26.8
GAAAAGUUAGGAUAUACAGAUAAAAAAACGAAAAAAAAUCUGUAGAAGGAACAUGAGGAUCACCCAUGUAAAAA [Mat - Exclusion 4 - Mayanna - D104]			30.7	15.5
GAAAAUUGAGGAUAUACGAACAUGUCAAAAGACGUGAAGGGACAUGAGGAUCACCCAUGUAGAAGGCGAAAGAG [Mat - Exclusion 2 - JL mod - D92]			58.6	14.1
GAAAGGGCAGGAUAUGCAGAGAGAAAAAAAAAAAAAAAAAAACAUGAGGAUCACCCAUGUAGAAGGGCCGAAAG [salish99-ex2-03]			34.7	48.1
GAAGAACAUGAGGAUCACCCAUGUCAGGAUAUGCGGAAGGGAAUAAUAACUUCCGGAAGCAGAAGGGACAAGAA [Ex 1 May 49]			32.3	60
GAAGUACGAGGAUAUACAUAGAUACAGAUACAUGUAGACGUACAUGAGGAUCACCCAUGUAGAAGGCGUACAAG [Mat - Same state - Mayanna Mod - D117]			137	129
GACCAGUGAGGAUAUGUAAAAAAAAGAGAAGAGAAGAGAGAACAGAAGGCACAUGAGGAUCACCCAUGUAGGGA [Default title]			143	170
GAGAAUGAAGGAUAUACAUGAGGAUCACCCAUGUAAGAGAAAGAGGGAAAAGAGAAAAGUAGAAGGUCAAAGAG [Ruby 73]			23.8	26

Sequence	apparent KD of MS2 coat protein (MS2 coat protein [1]) [nM]	apparent KD of MS2 coat protein (MS2 coat protein [2]) [nM]	apparent KD of MS2 coat protein (MS2 coat protein [3]) [nM]	apparent KD of MS2 coat protein (MS2 coat protein [4]) [nM]
GAUAAACAUGAGGAUCACCCAUGUAAGGAUAUGCGCUAACUAACUAACUAACUAACUAGCAGAAGGUACACUAC [The End]			24.4	26.5
GAUUAGGUAGGAUAUACAUGAGGAUCACCCAUGUAGGAAAAAAGCUACGAAAAAGAAUGUAGAAGGACCUAAAG [Mat - Exclusion 3 - Mayanna mod - D105]			20.5	22.9
GCGCACUAAGGAUAUACAUGAGGAUCACCCAUGUGGGUUUUGAAACAGAUUAAAUAGUGUAGAAGGUAGAAAAC [Lees]			91.9	95.8
GCUUGCCAAGGAUAUACAUGAGGAUCACCCAUGUGAGAGAAAAAAGUGAGAAAGAAAAGUAGAAGGUGGUGAGG [salish99-ex3-110]			26.4	120
GCUUGGGAAGGAUAUACAUGAGGAUCACCCAUGUGAGAGAAAAAAGUGAGAAAGAAAAGUAGAAGGUCUUGAGG [salish99-ex3-84]			69.5	69.4
GCUUGUGUAGGAUAUACAUGAGGAUCACCCAUGUGAGAGAAAAAAGUGAGAAAGAAAAGUAGAAGGACGUGAGG [salish99-ex3-80]			86.5	76.5
GGAAAACAUGAGGAUCACCCAUGUAAGGAUAUGCAAAAAAAAAAAAGGAUAUAGAAGGGCAGAAGGUACAAAGG [salish99-ex1-30]			23.3	36.1
GGAAAACAUGAGGAUCACCCAUGUAAGGAUAUGCUAAAAAAGGAAAAAAACCCACCAGGCAGAAGGUACUAAAG [Janelle Amethyst 18 Mod 3 - Jieux - Exclusion 1]			22.7	53.2
GGAAAACAUGAGGAUCACCCAUGUGAGGAUAUCGAUGUCCAAAAAAAAGUGCGGGACUCGAGAAGGCACUUGGA [salish99-ex1-31]			48.2	32.5
GGGUCACAUGAGGAUCACCCAUGUAAGGAUAUGCUAGGGAUGGAAACCAUUACGCAACGCAGAAGGUACUAAAG [Janelle Amethyst 18 Mod 11 - Jieux - Exclusion 1]			40.3	59
GGUUGGCGAGGAUAUACAUGAGGAUCACCCAUGUGAGCGAAAAAAGUGAGAAAGAAAAGUAGAAGGCGCUGACG [salish99-ex3-50]			45.7	60.5
GGUUGUGGAGGAUAUACAUGAGGAUCACCCAUGUGAGAGAAAAAAGUGAGAAAGAAAAGUAGAAGGUCGUGACG [salish99-ex3-69]			36.8	34
GUGUACAGAGGAUAUACAUAAGCUAGGAAACUAGCAAGAUCACAUGAGGAUCACCCAUGUAGAAGGCUGUACAC [Ex2: 739]			270	327
GUGUACAGAGGAUAUAUAUAAGCAUGGAAACAUGCAAGAUCACAUGAGGAUCACCCAUGUAGAAGGCUGUACAC [Ex2: 737]			23.3	73.7
UAGAACCUAGGAUAUACUUGGGUCACUAAUUUACUGAUAUAACAUGAGGAUCACCCAUGUAGAAGGAGGAGUAA [JR_Exc002_Sub203]			45.2	26.7
UGCCGUCUAGGAUAUACAUGAGGAUCACCCAUGUGACACACAUAUUUUACAAAACCAUGUAGAAGGAGACGGCA [E3-2.0]			99.2	477
UGUGAACAUGAGGAUCACCCAUGUGAGGAUAUACGAGCGUGAGAAAGAUAAAACGAGCGUAGAAGGCACAAGAA [JR_Exclusion1_Sub5]			43.3	57.5
UUAGAACAUGAGGAUCACCCAUGUGAGGAUAUGCAAUACUAGCGACAAGAUCAUUAUAGCAGAAGGCACGUAGU [JR_EXc001_Sub806]			30.1	40
UUUACGUGAGGAUAUGCGAAUAGAACGUAAGUCAUACAGACGCAGAAGGCACAUGAGGAUCACCCAUGUGAACC [JR_Exc004_Sub312]			20	49.8
UUUAUGUGAGGAUAUACGAAUAGUAAGUAAGUCUUACAGACGUAGAAGGCACAUGAGGAUCACCCAUGUGAACC [JR_Exc004_Sub309]			46.4	277
UUUUGACAUGAGGAUCACCCAUGUCAGGAUAUAGUAGGACAAAAAAAAAAAAGUUCUACUAGAAGGGAUAUGAA [Design 16: Not So Super Stable 2]			17.8	26.7
